{"source": "patent US20160046943", "about": "“Interferon Production Using Short RNA Duplexes” (YALE UNIVERSITY, published 2016)", "molecules": {"B1": {"name": "5'pppGC22 (dsRNA)", "RNA 1": "GGCGCGCGCGCGCGCGCGCGCC", "RNA 2": "GGCGCGCGCGCGCGCGCGCGCC", "modifications": "5'-triphosphate"}, "B2": {"name": "GC8 (dsRNA)", "RNA 1": "GCGCGCGC", "RNA 2": "GCGCGCGC", "modifications": "5'-OH"}, "B3": {"name": "GC10 (dsRNA)", "RNA 1": "GCGCGCGCGC", "RNA 2": "GCGCGCGCGC", "modifications": "5'-OH"}, "B4": {"name": "GC18 (dsRNA)", "RNA 1": "GCGCGCGCGCGCGCGCGC", "RNA 2": "GCGCGCGCGCGCGCGCGC", "modifications": "5'-OH"}, "B5": {"name": "5'pppGC12 (dsRNA)", "RNA 1": "GGCGCGCGCGCC", "RNA 2": "GGCGCGCGCGCC", "modifications": "5'-triphosphate"}, "B6": {"name": "GC14 (dsRNA)", "RNA 1": "GCGCGCGCGCGCGC", "RNA 2": "GCGCGCGCGCGCGC", "modifications": "5'-OH"}, "B7": {"name": "GC12 (dsRNA)", "RNA 1": "GCGCGCGCGCGC", "RNA 2": "GCGCGCGCGCGC", "modifications": "5'-OH"}, "B8": {"name": "5'pppCM12 (dsRNA)", "RNA 1": "GGACGUACGUCC", "RNA 2": "GGACGUACGUCC", "modifications": "5'-triphosphate"}, "B9": {"name": "5'ppp30L (ssRNA)", "RNA": "GGAUCGAUCGAUCGAUCGGCAUCGAUCGGCUUCGGCCGAUCGAUGCCGAUCGAUCGAUCGAUCC", "modifications": "5'-triphosphate"}, "B10": {"name": "5'pppGC10 (dsRNA)", "RNA 1": "GGCGCGCGCC", "RNA 2": "GGCGCGCGCC", "modifications": "5'-triphosphate"}, "B11": {"name": "GC22 (dsRNA)", "RNA 1": "GCGCGCGCGCGCGCGCGCGCGC", "RNA 2": "GCGCGCGCGCGCGCGCGCGCGC", "modifications": "5'-OH"}}, "key": {"[1]": {"target": "T1, RIG-I (full length) (Homo sapiens, UniProt O95786 O95786:1-925)", "T1 sequence": "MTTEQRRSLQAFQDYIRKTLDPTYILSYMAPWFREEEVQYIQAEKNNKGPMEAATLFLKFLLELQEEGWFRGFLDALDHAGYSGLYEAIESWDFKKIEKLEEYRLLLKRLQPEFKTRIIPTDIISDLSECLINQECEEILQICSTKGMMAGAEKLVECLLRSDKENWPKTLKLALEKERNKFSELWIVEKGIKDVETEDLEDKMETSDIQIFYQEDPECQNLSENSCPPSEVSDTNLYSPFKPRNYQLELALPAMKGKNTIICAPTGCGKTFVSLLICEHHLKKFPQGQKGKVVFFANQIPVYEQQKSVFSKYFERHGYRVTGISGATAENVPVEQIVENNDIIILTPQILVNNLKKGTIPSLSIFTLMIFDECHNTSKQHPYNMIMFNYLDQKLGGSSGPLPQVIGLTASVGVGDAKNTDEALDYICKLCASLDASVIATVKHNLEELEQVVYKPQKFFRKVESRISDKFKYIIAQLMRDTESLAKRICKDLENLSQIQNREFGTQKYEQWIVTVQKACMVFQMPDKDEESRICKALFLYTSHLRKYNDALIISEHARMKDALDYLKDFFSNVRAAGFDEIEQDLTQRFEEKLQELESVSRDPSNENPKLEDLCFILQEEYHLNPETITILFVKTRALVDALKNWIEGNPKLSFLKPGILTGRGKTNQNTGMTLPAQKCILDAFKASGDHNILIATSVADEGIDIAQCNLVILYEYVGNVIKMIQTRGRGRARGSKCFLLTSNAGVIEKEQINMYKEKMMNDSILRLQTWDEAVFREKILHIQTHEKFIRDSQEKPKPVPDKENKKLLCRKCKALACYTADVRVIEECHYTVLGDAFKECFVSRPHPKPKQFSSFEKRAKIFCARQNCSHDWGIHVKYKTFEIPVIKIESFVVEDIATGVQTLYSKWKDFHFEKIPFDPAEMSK", "details": "Km,RNA per estimated poly I:C strand, ATPase assay at 5 mM ATP"}, "[2]": {"target": "T1, RIG-I (full length)", "parameters": "K half: unit not given here", "details": "5'-OH"}, "[3]": {"target": "T1, RIG-I (full length)", "assay": "Km,RNA, ATPase assay at 5 mM ATP; SD 0.50", "details": "tags: pET-SUMO (His-SUMO vector, Ni-NTA purified), E. coli Rosetta II(DE3)", "method": "(§1) ATPase activity of RIG-I was measured with the NADH-coupled ATPase assay adapted from previously described protocols (Luo et al., 2011, Cell 147:409-422). Experiments were set up in 50 μl reaction volumes in 96 well format using Corning clear half-area flat bottom plates (#3695). Each 50 μl reaction contained 10 μl of 5×NADH enzyme buffer (1 mM NADH, 100 U of lactate dehydrogenase/mL, 500 U/mL of pyruvate kinase/mL, and 2.5 mM phosphoenolpyruvate), 5-10 nM of RIG-I, 5 μl of varying amounts of either RNA or ATP, and a remaining volume of 25 mM 3-(N-morpholino)propanesulfonic acid (MOPS) pH 7.4, 150 mM KCl, 2 mM DTT, and 0.1% Triton X-100. The rate of ATP hydrolysis was indirectly determined by monitoring the loss of NADH by reading the absorbance at 340 nm using a Biotek Synergy H1 plate reader.\n(§2) To more precisely define the minimal duplex length for enzymatic activation of RIG-I, the steady-state kinetic parameters for RIG-I activation by RNA hairpins and double-stranded duplexes ranging in size from 8 to 30 base pairs, was measured with and without a 5′triphosphate (RNAs listed in Table 2). […]"}, "[4]": {"target": "T1, RIG-I (full length)", "assay": "Km,RNA, ATPase assay at 5 mM ATP; SD 1.0", "details": "tags: pET-SUMO (His-SUMO vector, Ni-NTA purified), E. coli Rosetta II(DE3)", "method": "as §1\nTo more precisely define the minimal duplex length for enzymatic activation of RIG-I, the steady-state kinetic parameters for RIG-I activation by RNA hairpins and double-stranded duplexes ranging in size from 8 to 30 base pairs, was measured with and without a 5′triphosphate (RNAs listed in Table 2). In order to evaluate the respective roles of ATP and RNA in activation of the RIG-I:RNA complex, the Michaelis constant for ATP (K_{m,ATP}) at saturating RNA (500 nM) and the Michaelis constant for RNA (K_{m,RNA}) at saturating ATP (5 mM) was measured for each RNA construct (kcat, K_{m,ATP} and K_{m,RNA} summary in Table 4)."}, "[5]": {"target": "T1, RIG-I (full length)", "assay": "Km,RNA, ATPase assay at 5 mM ATP; SD 15", "details": "tags: pET-SUMO (His-SUMO vector, Ni-NTA purified), E. coli Rosetta II(DE3); palindromic blunt duplex", "method": "as §1, §2"}, "[6]": {"target": "T1, RIG-I (full length)", "assay": "Km,RNA, ATPase assay at 5 mM ATP; SD 1.5", "details": "tags: pET-SUMO (His-SUMO vector, Ni-NTA purified), E. coli Rosetta II(DE3); palindromic blunt duplex", "method": "as §1, §2"}, "[7]": {"target": "T1, RIG-I (full length)", "assay": "Km,RNA, ATPase assay at 5 mM ATP; SD 3.4", "details": "tags: pET-SUMO (His-SUMO vector, Ni-NTA purified), E. coli Rosetta II(DE3); palindromic blunt duplex", "method": "as §1, §2"}, "[8]": {"target": "T1, RIG-I (full length)", "assay": "Km,RNA, ATPase assay at 5 mM ATP; SD 0.20", "details": "tags: pET-SUMO (His-SUMO vector, Ni-NTA purified), E. coli Rosetta II(DE3); palindromic blunt duplex", "method": "as §1, §2"}, "[9]": {"target": "T1, RIG-I (full length)", "assay": "Km,RNA, ATPase assay at 5 mM ATP; SD 1.3", "details": "tags: pET-SUMO (His-SUMO vector, Ni-NTA purified), E. coli Rosetta II(DE3); palindromic blunt duplex", "method": "as §1, §2"}, "[10]": {"target": "T1, RIG-I (full length)", "assay": "Km,RNA, ATPase assay at 5 mM ATP; SD 0.10", "details": "tags: pET-SUMO (His-SUMO vector, Ni-NTA purified), E. coli Rosetta II(DE3); palindromic blunt duplex", "method": "as §1, §2"}, "[11]": {"target": "T1, RIG-I (full length)", "assay": "Km,RNA (apparent binding constant), ATPase assay at 5 mM ATP, 5 nM RIG-I, MOPS pH 7.4, 150 mM KCl; SD 0.20", "details": "tags: pET-SUMO (His-SUMO vector, Ni-NTA purified), E. coli Rosetta II(DE3); palindromic blunt duplex", "method": "as §1, §2"}, "[12]": {"target": "T1, RIG-I (full length)", "assay": "Km,RNA, ATPase assay at 5 mM ATP; SD 0.40", "details": "tags: pET-SUMO (His-SUMO vector, Ni-NTA purified), E. coli Rosetta II(DE3); hairpin, 8 bp, UUCG tetraloop, blunt end", "method": "as §1, §2"}, "[13]": {"target": "T1, RIG-I (full length)", "assay": "Km,RNA, ATPase assay at 5 mM ATP; SD 1.1", "details": "tags: pET-SUMO (His-SUMO vector, Ni-NTA purified), E. coli Rosetta II(DE3); palindromic blunt duplex", "method": "as §1, §2"}}, "note": "Where two headings read alike, the source gives them in different places.", "data": [{"molecule": "poly I:C fraction A7 (~25 bp)", "values": [{"measurement": "K half", "setting": "[1]", "value": 20, "unit": "nM"}]}, {"molecule": "LMW poly I:C", "values": [{"measurement": "activity", "setting": "[2]; ATPase kcat, Km,ATP 690 uM", "value": 4.9, "unit": "s⁻¹"}, {"measurement": "K half", "setting": "[2]; Km,RNA, ATPase assay at 5 mM ATP, SD 1.1", "value": 2.4}]}, {"molecule": "poly I:C fraction A1 (~500 bp)", "values": [{"measurement": "K half", "setting": "[1]", "value": 20, "unit": "nM"}]}, {"molecule": "GGAUCGAUCGAUCGAUCGGCUUCGGCCGAUCGAUCGAUCGAUCC (ssRNA, 5'-triphosphate)", "note": "[5'ppp20L]", "values": [{"measurement": "apparent K (half saturation)", "setting": "[3]", "value": 10.1, "unit": "nM"}]}, {"molecule": "B1", "values": [{"measurement": "apparent K (half saturation)", "setting": "[4]; palindromic blunt duplex, two 5'ppp ends", "value": 3.58, "unit": "nM"}]}, {"molecule": "B2", "values": [{"measurement": "apparent K (half saturation)", "setting": "[5]", "value": 91.4, "unit": "nM"}]}, {"molecule": "B3", "values": [{"measurement": "apparent K (half saturation)", "setting": "[6]", "value": 24.4, "unit": "nM"}]}, {"molecule": "B4", "values": [{"measurement": "apparent K (half saturation)", "setting": "[7]", "value": 26.7, "unit": "nM"}]}, {"molecule": "B5", "values": [{"measurement": "apparent K (half saturation)", "setting": "[8]", "value": 2.33, "unit": "nM"}]}, {"molecule": "B6", "values": [{"measurement": "apparent K (half saturation)", "setting": "[9]", "value": 23.2, "unit": "nM"}]}, {"molecule": "B7", "values": [{"measurement": "apparent K (half saturation)", "setting": "[4]; palindromic blunt duplex", "value": 13.1, "unit": "nM"}]}, {"molecule": "B8", "values": [{"measurement": "apparent K (half saturation)", "setting": "[10]", "value": 2.62, "unit": "nM"}]}, {"molecule": "B9", "values": [{"measurement": "apparent K (half saturation)", "setting": "[4]; hairpin, 30 bp, UUCG tetraloop, blunt end", "value": 10.8, "unit": "nM"}]}, {"molecule": "B10", "values": [{"measurement": "apparent K (half saturation)", "setting": "[11]", "value": 1.16, "unit": "nM"}]}, {"molecule": "GGCGCGGCUUCGGCCGCGCC (ssRNA, 5'-triphosphate)", "note": "[5'ppp8L]", "values": [{"measurement": "apparent K (half saturation)", "setting": "[12]", "value": 5.16, "unit": "nM"}]}, {"molecule": "GGACGUACGUUUCGACGUACGUCC (ssRNA, 5'-triphosphate)", "note": "[5'ppp10L]", "values": [{"measurement": "apparent K (half saturation)", "setting": "[3]; hairpin, 10 bp, UUCG tetraloop, blunt end", "value": 4.46, "unit": "nM"}]}, {"molecule": "B11", "values": [{"measurement": "apparent K (half saturation)", "setting": "[13]", "value": 27.3, "unit": "nM"}]}]}
